Measurements as given in publication PMC11024442, “Lipocalin-type prostaglandin D synthase: a glymphopathy marker in idiopathic hydrocephalus” (Frontiers in Aging Neuroscience, 2024).

Target: T1, human recombinant Tau-441 (human, UniProt P10636-8 1-441)
T1 construct: Commercial recombinant protein; source: bought: WAKO
Assay: SPR; Biacore 2000; recombinant human Δ1–22 L-PGDS amine-coupled to a CM5 chip; Tau-441 flowed at 3, 2 and 1 nM; dissociation on washing with Dulbecco's phosphate-buffered saline; Kd from the sensorgrams with BIAevaluation 3.1
Conditions: both partners purified

T1 sequence (P10636 other isoform, or with tags, fused parts or gaps): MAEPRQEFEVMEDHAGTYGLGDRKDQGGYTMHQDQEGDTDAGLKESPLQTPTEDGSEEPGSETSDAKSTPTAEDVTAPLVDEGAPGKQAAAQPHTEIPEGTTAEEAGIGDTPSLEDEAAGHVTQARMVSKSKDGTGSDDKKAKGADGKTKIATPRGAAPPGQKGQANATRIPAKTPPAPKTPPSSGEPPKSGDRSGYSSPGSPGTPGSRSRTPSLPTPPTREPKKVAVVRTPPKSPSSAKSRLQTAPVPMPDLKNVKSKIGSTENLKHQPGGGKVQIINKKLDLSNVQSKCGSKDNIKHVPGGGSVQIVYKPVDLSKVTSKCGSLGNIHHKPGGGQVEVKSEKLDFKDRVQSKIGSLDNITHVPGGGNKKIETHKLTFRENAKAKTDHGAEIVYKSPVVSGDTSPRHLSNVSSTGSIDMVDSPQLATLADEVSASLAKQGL

B1: human recombinant Δ1–22 L-PGDS (lipocalin-type prostaglandin D synthase without the signal sequence) (enzyme, UniProt P41222 23-190, looked up)
chain: APEAQVSVQPNFQQDKFLGRWFSAGLASNSSWLREKKAALSMCKSVVAPATDGGLNLTSTFLRKNQCETRTMLLQPAGSLGSYSYRSPHWGSTYSVSVVETDYDQYALLYSQGSKGPGEDFRMATLYSRTQTPRAELKEKFTAFCKAQGFTEDTIVFLPQTDKCMTEQ
notes: Cloned into pGEX-2T as a GST fusion and cut with thrombin; also called recombinant human ∆1–22 L-PGDS; recombinant human L-PGDS; source: E. coli BL21 (DE3), purified (glutathione-Sepharose 4B, thrombin digestion, gel filtration on HiLoad Superdex 75)
Work on B1 yielded a Kd of 910 µM.
